According to paper PMC12667520, “SP3 and DEP1 Orchestrate Panicle Architecture by Jointly Regulating APO2 Expression in Rice”:

T1: DEP1 (Oryza sativa, UniProt Q67UU9 1-426)
T1 sequence: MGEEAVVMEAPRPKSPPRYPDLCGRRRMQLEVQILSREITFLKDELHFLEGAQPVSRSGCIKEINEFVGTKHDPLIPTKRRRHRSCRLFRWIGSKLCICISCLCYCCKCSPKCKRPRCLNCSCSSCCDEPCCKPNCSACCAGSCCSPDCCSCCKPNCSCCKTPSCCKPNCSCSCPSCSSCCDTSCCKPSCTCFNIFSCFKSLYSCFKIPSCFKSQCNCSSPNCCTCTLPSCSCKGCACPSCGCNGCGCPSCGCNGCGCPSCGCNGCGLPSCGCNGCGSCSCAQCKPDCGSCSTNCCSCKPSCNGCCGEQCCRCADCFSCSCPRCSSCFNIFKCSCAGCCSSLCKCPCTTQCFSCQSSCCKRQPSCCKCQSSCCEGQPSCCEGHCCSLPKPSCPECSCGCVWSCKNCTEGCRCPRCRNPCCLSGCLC

T2: SP3 (Dof15) (Oryza sativa)
T2 chain: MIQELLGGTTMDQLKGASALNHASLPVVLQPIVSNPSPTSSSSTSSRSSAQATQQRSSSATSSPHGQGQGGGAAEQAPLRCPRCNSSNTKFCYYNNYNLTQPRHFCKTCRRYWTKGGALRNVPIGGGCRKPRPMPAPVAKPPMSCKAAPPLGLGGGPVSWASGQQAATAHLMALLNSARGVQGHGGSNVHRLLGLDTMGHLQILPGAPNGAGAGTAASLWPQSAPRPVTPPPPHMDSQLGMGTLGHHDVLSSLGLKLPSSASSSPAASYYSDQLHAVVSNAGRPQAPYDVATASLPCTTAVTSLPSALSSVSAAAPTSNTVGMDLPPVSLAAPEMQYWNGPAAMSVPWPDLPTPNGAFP

B1: Bio-Probe (APO2 promoter) (dsDNA)
DNA 1: ACGCATGCAGGAGTATCTTTTTTCTTCGGAAGAGGAACAGTGAC
DNA 2: GTCACTGTTCCTCTTCCGAAGAAAAAAGATACTCCTGCATGCGT

Columns and labels:
[1] = biological target: FLAG-DEP1 (rice (Oryza sativa)) (UniProt Q67UU9)
DEP1 = biological target: T1, DEP1; assay: EMSA; LightShift Chemiluminescent EMSA Kit (Thermo), manufacturer's instructions; buffer, salt, pH and temperature not stated; details: protein: recombinant; tags: MBP; label: biotin; blunt
SP3 (Dof15) = biological target: T2, SP3 (Dof15); assay: as above; details: protein: recombinant; tags: GST (pGEX-6p); label: biotin; blunt

Molecule | share of DEP1-GFP signals localised to the nucleus in rice protoplasts: 16% without SP3, 76% with SP3-HA co-expressed [1] | binding result (DEP1) | binding result (SP3 (Dof15))
HA-SP3 (natural protein) | 76% |  | 
B1 |  | no binding | binds
